Results as given in publication PMC6127106, “Apolipoprotein A-IV binds αIIbβ3 integrin and inhibits thrombosis” (Nature Communications, 2018).

Target: purified human platelet αIIbβ3 integrin (human, UniProt P05106 27-788)
Assay: ELISA; competition: αIIbβ3 (1 µg) immobilised on the plate, Fg 1 µM with apoA-IV 0–10 µM; TBS, 0.05% Tween-20, 1 mM each MgCl2, MnCl2, CaCl2; 1 h at 37 °C; anti-fibrinogen IgG and anti-mouse IgG-HRP
Details: both partners purified

B1: recombinant human apoA-IV (ligand, UniProt P06727 21-396, looked up)
chain: EVSADQVATVMWDYFSQLSNNAKEAVEHLQKSELTQQLNALFQDKLGEVNTYAGDLQKKLVPFATELHERLAKDSEKLKEEIGKELEELRARLLPHANEVSQKIGDNLRELQQRLEPYADQLRTQVSTQAEQLRRQLTPYAQRMERVLRENADSLQASLRPHADELKAKIDQNVEELKGRLTPYADEFKVKIDQTVEELRRSLAPYAQDTQEKLNHQLEGLTFQMKKNAEELKARISASAEELRQRLAPLAEDVRGNLRGNTEGLQKSLAELGGHLDQQVEEFRRRVEPYGENFNKALVQQMEQLRQKLGPHAGDVEGHLSFLEKDLRDKVNSFFSTFKEKESQDKTLSLPELEQQQEQQQEQQQEQVQMLAPLES
notes: apolipoprotein A-IV, human; also called rH-ApoA-IV; rH-apoA-IV; source: E. coli, purified (His GraviTrap IMAC, tag cut with TEV protease); not shown: His6, N-terminal, cleaved
IC50: 1320 nM
